T1: human TIGIT over-expressed on cells (human, UniProt Q495A1 22-244)
T1 construct: also called CHO-K1/human TIGIT cells; CHO cells expressing human TIGIT
T1 sequence: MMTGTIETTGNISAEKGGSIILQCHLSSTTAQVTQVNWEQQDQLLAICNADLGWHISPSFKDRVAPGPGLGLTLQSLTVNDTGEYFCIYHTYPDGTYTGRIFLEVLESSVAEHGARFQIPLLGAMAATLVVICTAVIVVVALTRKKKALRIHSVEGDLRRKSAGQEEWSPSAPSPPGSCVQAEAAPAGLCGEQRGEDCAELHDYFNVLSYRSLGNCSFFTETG

T2: Human TIGIT protein with HIS tag (human, UniProt Q495A1 22-141)
T2 construct: A soluble analyte is probably only the extracellular part; also called human TIGIT recombinant protein; not shown: HIS tag
T2 sequence: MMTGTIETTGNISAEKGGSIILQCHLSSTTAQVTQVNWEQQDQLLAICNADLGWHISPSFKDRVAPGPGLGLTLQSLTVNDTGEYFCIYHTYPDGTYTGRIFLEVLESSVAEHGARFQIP

B1: 83G6H11C12 (antibody, V domains shown)
VH: EVMLVESGGGLVKPGGSLKLSCAASGFTFSFYTMSWVRQTPEKRLEWVATISSGGGSTYYSDSVKGRFTISRDNAKNNLYLQMTSLRSEDTALYYCSRSLPVDYWGQGTTLTVSS
VL: QIVLTQSPAIMSASLGERVTMTCTASSSVSSSYLHWYQQKPGSSPKLWIYSTSNLASGVPARFSGSGSGTSYSLTISSMEAEDAATYYCHLYHHSPYTFGGGTKLEIK
notes: Mouse monoclonal antibody; also called mouse anti-human TIGIT monoclonal antibody 83G6H11C12
B2: 92E9D4B4 (antibody, V domains shown)
VH: B1 VH with S53G, S57D, S61P, S63N, T84S, S97A, Y104F
VL: B1 VL with S32T, L47F, L55M, L91Y, H94R
notes: Mouse monoclonal antibody; also called mouse anti-human TIGIT monoclonal antibody 92E9D4B4
B3: 104G12E12G2 (antibody, V domains shown)
VH: EVQLQQSGPELVKPGASVKISCKASGYSFTGSYIHWVKQNHVKTLEWIGRINPHNGPTSYNQNFKGKASLTVDLSSSTAYMEVHSLTSEDSAVYYCVRYDGYYGGALDYWGQGTSVTVSS
VL: DIQMTQSPSSLSASLGERVSLTCRASQEISGYLSWLQQKPDGTIKRLIYAASTLDSGVPKRFSGSRSGSDYSLTISSLESEDFADYYCLQYASYPYTFGGGTKLEIK
notes: Mouse monoclonal antibody; also called mouse anti-human TIGIT monoclonal antibody 104G12E12G2

Where a chain is given by its changes, count along the chain named.

For the first assay, the target named is T3, cynomolgus TIGIT over-expressed on CHO-K1 cells (cynomolgus, UniProt A0A7N9I9V4 89-312).
T3 construct: whole, on cells; also called CHO-K1/cynomolgus TIGIT cells
T3 sequence (A0A7N9I9V4 entry or part of it): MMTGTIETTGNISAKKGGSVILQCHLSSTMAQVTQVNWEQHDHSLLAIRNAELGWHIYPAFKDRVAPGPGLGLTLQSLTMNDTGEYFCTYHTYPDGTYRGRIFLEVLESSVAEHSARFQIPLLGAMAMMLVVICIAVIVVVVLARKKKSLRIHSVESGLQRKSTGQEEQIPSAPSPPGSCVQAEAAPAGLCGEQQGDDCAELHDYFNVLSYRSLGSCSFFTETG
In words: FACS, CHO-K1 cells over-expressing cynomolgus TIGIT. The procedure:
(§1) The mixture was equilibrated for 30 minutes at room temperature and washed three times with FACS buffer (PBS containing 1% BSA). iFluor labeled goat anti-mouse IgG as the secondary antibody was added and incubated at room temperature for 45 min. Finally, the cells were washed 3 time with PBS, and the signal was read by FACS BD Calibur. Data was analyzed with PRISM™ (GraphPad Software, San Diego, Calif.) using non-linear regression and EC₅₀ values were calculated.
(In general: Flow cytometry measures light scatter and fluorescence of single cells or particles in a stream.)
B1: the “Bottom (best-fit)” value was 16.1; the EC50 (in general, the concentration needed to bring the measured effect to its halfway point) worked out at 1 nM; the “Top (best-fit)” value is 326.
Take B2: the “Bottom (best-fit)” value is 17.7, the EC50 is 1.16 nM and the “Top (best-fit)” value amounted to 348.
Consider B3, for which the “Bottom (best-fit)” value came to 7, a half-maximal response (EC50) required 11.1 nM and the “Top (best-fit)” value came to 80.6.

The next assay has as its target T1, human TIGIT over-expressed on cells. Description: FACS, CHO-K1 cells over-expressing human TIGIT. The procedure: as §1
B1: the “Bottom (best-fit)” value amounted to 9.57, the EC50 is 0.68 nM and the “Top (best-fit)” value stood at 115.
The like results for B2 were, in that order, 7.99, 0.8 nM and 97.
For B3, in that order: 15.5, 0.73 nM and 96.9.

A further assay has the same target. Description: cell-based or functional assay.
Regarding B1, the “IL-2 secretion in T cell activation, Bottom (best-fit)” value (“IL-2 secretion … Bottom (best-fit)” for short) was 104; the “IL-2 secretion in T cell activation, EC50” value (shortened to “IL-2 secretion … EC50”) came to 0.83 nM; the “IL-2 secretion in T cell activation, Top (best-fit)” value (shortened to “IL-2 secretion … Top (best-fit)”) stood at 171.
Take B2: the “IL-2 secretion … Bottom (best-fit)” value came to 106; the “IL-2 secretion … EC50” value came out at 3.36 nM; the “IL-2 secretion … Top (best-fit)” value came to 274.
For the molecule B3, the “IL-2 secretion … Bottom (best-fit)” value is 108; the “IL-2 secretion … EC50” value was determined as 3.31 nM; the “IL-2 secretion … Top (best-fit)” value amounted to 189.

The target in another assay is T2, Human TIGIT protein with HIS tag. Description: SPR Biacore T200; antibody Fc-captured, TIGIT-His analyte. The procedure:
Binding kinetics of mouse anti-human TIGIT monoclonal antibodies to human TIGIT were determined using a Surface Plasmon Resonance (SPR) biosensor, BIACORE® T200 (GE Healthcare; Little Chalfont, United Kingdom). […] Each mouse anti-human TIGIT monoclonal antibody was immobilized on the sensor chip through the Fc capture method. Human TIGIT protein with HIS tag was used as the analyte. The dissociation (kd) and association (kₐ) rate constants were obtained using the BIACORE® T200 evaluation software. The apparent equilibrium dissociation constants (KD) were calculated from the ratio of kd over kₐ.
Turning to B1, the Kd (usually the equilibrium constant for the complex coming apart) was 0.7 nM; the koff (as a rule, the first-order rate constant of dissociation) is 0.00043 s⁻¹; the on-rate constant (kon) (usually the rate constant with which the complex forms) came to 610000 M⁻¹ s⁻¹.
For B2, in that order: 0.57 nM, 0.00041 s⁻¹ and 710000 M⁻¹ s⁻¹.
B3 showed a Kd of 2.3 nM, a koff of 0.00083 s⁻¹ and a kon of 370000 M⁻¹ s⁻¹.

The target of another assay is T1, human TIGIT over-expressed on cells. In words: competition FACS, CHO cells expressing human TIGIT; competitor PVR recombinant protein. The procedure: The mixture was equilibrated for 30 minutes at room temperature, and washed three times with FACS buffer (PBS containing 1% BSA). PE/Cy5 Streptavidin secondary antibody was then added to the mixtures and incubated for 15 minutes at room temperature. Subsequently, the cells were washed with FACS buffer and analyzed by flow cytometry. Data was analyzed with PRISM™ (GraphPad Software, San Diego, Calif.) using non-linear regression, and IC₅₀ values were calculated (FIGS. 4A-4B and Table 6).
As for B1, the “Bottom (best-fit)” value is 12.9; the IC50 (in general, the midpoint of a concentration-inhibition curve) was determined as 0.7 nM; the “Top (best-fit)” value was 70.2.
As for B2, the “Bottom (best-fit)” value was determined as 10.3, the half-maximal inhibitory concentration (IC50) stood at 2 nM and the “Top (best-fit)” value was 65.5.
For B3, in that order: 8.9, 2.4 nM and 56.9.

The next assay shares this target. In words: cell-based or functional assay. This is another data set of the same source.
With B1, the “luciferase signal in T cell activation, Bottom (best-fit)” value turned out to be 9.6; the “luciferase signal in T cell activation, EC50” value is 4.4 nM; the “luciferase signal in T cell activation, Top (best-fit)” value was 145.
Take B2: the “luciferase signal in T cell activation, Bottom (best-fit)” value was determined as 3.4; the “luciferase signal in T cell activation, EC50” value came out at 3.9 nM; the “luciferase signal in T cell activation, Top (best-fit)” value is 141.
For B3, in that order: 6, 6.42 nM and 147.

(Values after patent US20210095028A1 (NANJING LEGEND BIOTECH, published 2021).)
